Reference: publication PMC7496394
Like-named read-outs stand apart in the source and are kept apart here.

How the values were obtained:
[1] = molecular target: recombinant and mature MDA1 (Arabidopsis thaliana) (UniProt F4JVI3); assay: SEC
[2] = molecular target: T1, rMDA1 (mature MDA1) (Arabidopsis thaliana, UniProt F4JVI3 44-493); assay: EMSA
T1 sequence: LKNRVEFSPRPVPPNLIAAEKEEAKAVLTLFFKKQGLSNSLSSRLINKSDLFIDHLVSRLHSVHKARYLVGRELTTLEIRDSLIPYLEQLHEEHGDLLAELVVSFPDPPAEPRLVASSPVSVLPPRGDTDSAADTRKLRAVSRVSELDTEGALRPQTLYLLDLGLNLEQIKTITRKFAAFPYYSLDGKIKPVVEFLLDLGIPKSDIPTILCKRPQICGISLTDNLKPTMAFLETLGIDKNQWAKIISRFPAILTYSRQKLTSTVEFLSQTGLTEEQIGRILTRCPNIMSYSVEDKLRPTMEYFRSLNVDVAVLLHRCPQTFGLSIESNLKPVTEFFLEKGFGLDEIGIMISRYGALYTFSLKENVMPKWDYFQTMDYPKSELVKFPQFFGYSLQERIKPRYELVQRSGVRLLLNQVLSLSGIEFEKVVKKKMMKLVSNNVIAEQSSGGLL

[3] = molecular target: T1, rMDA1 (mature MDA1); assay: EMSA; remark: listed apart in the source
[4] = molecular target: T1, rMDA1 (mature MDA1); assay: EMSA; remark: listed apart in the source
[5] = molecular target: T1, rMDA1 (mature MDA1); assay: EMSA; remark: listed apart in the source
[6] = molecular target: T1, rMDA1 (mature MDA1); assay: EMSA; remark: listed apart in the source

## recombinant and mature MDA1 (from UniProt F4JVI3 130-493) (domain or fragment)
[1]
  stoichiometry N: 2

## GAUAUGCGCGAAUUCCUGUAGAACGAACACUAGAAGAAA (ssRNA) [ssRNA random probe]
[2]
  binding result: binds

B1: dsRNA random probe (dsRNA)
RNA 1: GAUAUGCGCGAAUUCCUGUAGAACGAACACUAGAAGAAA
RNA 2: UUUCUUCUAGUGUUCGUUCUACAGGAAUUCGCGCAUAUC
[3]
  binding result: no binding

B2: psbE E4 (dsDNA)
DNA 1: ATTGACGATCTCACAAAGATGCAATCT
DNA 2: AGATTGCATCTTTGTGAGATCGTCAAT
[4]
  binding result: binds

B3: psbE E5 (dsDNA)
DNA 1: TTAATTTACTTATTCATCTTTTACAGA
DNA 2: TCTGTAAAAGATGAATAAGTAAATTAA
[4]
  binding result: no binding

## GATATGCGCGAATTCCTGTAGAACGAACACTAGAAGAAA (ssDNA) [ssDNA random probe]
[3]
  binding result: no binding

B4: ndhA A10 (dsDNA)
DNA 1: TATTGGGAATCATAACAGGTGTACTAG
DNA 2: CTAGTACACCTGTTATGATTCCCAATA
[4]
  binding result: binds

B5: dsDNA random probe (dsDNA)
DNA 1: GATATGCGCGAATTCCTGTAGAACGAACACTAGAAGAAA
DNA 2: TTTCTTCTAGTGTTCGTTCTACAGGAATTCGCGCATATC
[5]
  binding result: binds

## GUAGACUCUAAAAAUACCCUUGGUACUUU (ssRNA) [5' psbE sRNA]
[6]
  binding result: no binding

## UGGCUGAUAUUAUGACGAUAC (ssRNA) [5' ndhA sRNA]
[6]
  binding result: no binding

## GUUUUAAACAAGAGACAGAAACAAAGA (ssRNA) [3' ndhA sRNA]
[6]
  binding result: no binding

## UCUGAUUCGAGGGGGUCCCGUUGAAC (ssRNA) [3' psbJ sRNA]
[6]
  binding result: no binding
